B1: OR4K15 (parent)
chain: GUUAACGGUCAUAGGCCAUGGAAACUAGGAGCACCAUUUCGCUGCCAGUGAAGAAAUGAACAAAGAAAAUCUGGGCCAGGCAGGCAUCAAAAGAAAUAGUCUUGCGCUCAACCAGAAAGUCUGUAAUCAUUUUAAGGGUA

The variants in the data set derive from B1. Put plainly: self-cleavage, relative activity (ratio to wild type); higher = more cleavage; in vitro, sequencing; the parent is a self-cleaving ribozyme.
For GUUAACGGUCAUAGGCCAUGGAAACCAGGAGCACCAUUUCGCUGCCAGUGAAGAAAUGAACAAAGAAAAUCUGGGCCAGGCAGGCAUCAAAAGAAAUAGUCUUGCGCUCAACCAGAAAGUCUGUAAUCAUUUUGAGGGUA [U26C A134G], the self-cleavage is 1.05.
The result for GUUAACGGUCAUAGGCCAUGGAAACCAGGAGCACCAUUUCGCUGCCAGUGAAGAAAUGAACAAAGAAAAUCUGGGCCAGGCAGGCACCAAAAGAAAUAGUCUUGCGCUCAACCAGAAAGUCUGUAAUCAUUUUAAGGGUA [U26C U87C] reads 0.37.
The result for GUUAACGGUCAUAGGCCAUGGAAACCAGGAGCACCAUUUCGCUGCCAGUGAAGAAAUGAACAAAGAAAAUCUGGGCCAGGCAGGCAUCAAAAGAAAUAGUCUUGCGCCCAACCAGAAAGUCUGUAAUCAUUUUAAGGGUA [U26C U108C] reads 0.01; that for GUUAACGGUCAUAGGCCAUGGAAACCAGGAGCACCAUUUCGCUGCCAGUGAAGAAAUGAACAAAGAAAAUCUGGGCCAGGCAGACAUCAAAAGAAAUAGUCUUGCGCUCAACCAGAAAGUCUGUAAUCAUUUUAAGGGUA [U26C G84A], 1.84; that for GUUAACGGUCAUAGGCCAUGGAAACCAGGAGCACCAUUUCGCUGCCAGUGAAGAAAUGAACAAAGAAAAUCUGGGCCAGGCAGGCAUCAAAAGAAAUAGCCUUGCGCUCAACCAGAAAGUCUGUAAUCAUUUUAAGGGUA [U26C U100C], 1.45.
As for GUUAACGGUCAUAGGCCAUGGAAACCAGGAGCACCAUUUCGCUACCAGUGAAGAAAUGAACAAAGAAAAUCUGGGCCAGGCAGGCAUCAAAAGAAAUAGUCUUGCGCUCAACCAGAAAGUCUGUAAUCAUUUUAAGGGUA [U26C G44A], the self-cleavage came out at 1.07.
Turning to GUUAACGGUCAUAGGCCAUGGAAACCAGGAGCACCAUUUCGCUGCCAGUGAAGAAAUGAACAAAGAAAAUCUGGGCUAGGCAGGCAUCAAAAGAAAUAGUCUUGCGCUCAACCAGAAAGUCUGUAAUCAUUUUAAGGGUA [U26C C77U], the self-cleavage was 1.77.
Take GUUAACGGUCAUAGGCCAUGGAAACCAGGAGCACCAUUUCGCUGCCAGUGAAGAAAUGAACAAAGAAAAUCUGGGCCAGGCAGGCAUCAAAAGAAAUAGUCUUGCGCUCAACCAGAAAGUCUGUAAUCAUUUUAAAGGUA [U26C G136A]: the self-cleavage is 2.02.
The result for GUUAACGGUCAUAGGCCAUGGAAACCAGGAGCACCAUUUCGCUGCCAGUGAAGAAAUGAACAAAGAAAAUCUGGGCCAGGCAGGCAUCAAAAGAAAUAGUCUUGCGCUCAACCAGAAAGUCUGUAAUCAUUUUAAGGGUG [U26C A140G] reads 1.4.
For GUUAACGGUCAUAGGCCAUGGAAACCAGGAGCACCAUUUCGCCGCCAGUGAAGAAAUGAACAAAGAAAAUCUGGGCCAGGCAGGCAUCAAAAGAAAUAGUCUUGCGCUCAACCAGAAAGUCUGUAAUCAUUUUAAGGGUA [U26C U43C], the self-cleavage stood at 0.54.
Regarding GUUAACGGUCAUAGGCCAUGGAAACCAGGAGCACCAUUUCGCUGCCAGUGAAGAAAUGAACAAAGAAAAUCUGGGCCAGGCAGGCAUCAAAAGAAAUAGUCUUGCGCUCAACCAGAAAGUCCGUAAUCAUUUUAAGGGUA [U26C U122C], the self-cleavage worked out at 0.7.
The result for GUUAACGGUCAUAGGCCAUGGAAACCAGGAGCACCAUUACGCUGCCAGUGAAGAAAUGAACAAAGAAAAUCUGGGCCAGGCAGGCAUCAAAAGAAAUAGUCUUGCGCUCAACCAGAAAGUCUGUAAUCAUUUUAAGGGUA [U26C U39A] reads 1.13; that for GUUAACGGUCAUAGGCCAUGGAAACCAGGAGCACCAUUUCGCUGCCAGUGAAGAAAUGAACAAAGAAAAUCUGGGCCAGGCAGGCAUCAAAAGAAAUAGUCUUGCGCUCAACCAGAAAGCCUGUAAUCAUUUUAAGGGUA [U26C U120C], 0.85; that for GUUAACGGUCAUAGGCCAUGGAAACCAGGAGCACCAUUUCGCUGCCAGUGAAGAAAUGAACAAAGAAAAUCUGGGCCAGGCAGGCAUCAAAAGAAAUAGUCUUGCGCUCAACCAGAAAGUCUGUAAUCAUUUUAAGGGAA [U26C U139A], 1.49.
The result for GUUAACGGUCAUAGGCCAUGGAAACCAGGAGCACCAUUUCGCUGCCAGUGAAGAAAUGAACAAAGAAAAUCUGGGCCAGGCAGGCAUCAAAAGAAAUAGUCUUGCGCUCAACCAGAAAGUCUGUAAUCAUCUUAAGGGUA [U26C U131C] reads 1.04; that for GUUAACGGUCAUAGGCCAUGGAAACCAGGAGCACCAUUUCGCUGCCAGUGAAGAAAUGAACAAAGAAAAUCUGGGCCAGGCAGGCAUCAAAAGAAAUAGUCUUGCGCUCAACCAGAAAGUCUGUAAUCAUUAUAAGGGUA [U26C U132A], 0.61; that for GUUAACGGUCAUAGGCCAUGGAAACCAGGAGCACCAUUUCGCUGCCAGUGAAGAAAUGAACAAAGAAAAUCUGGGCCAGGCAGGCAUCAAAAGAAAUAGUCUCGCGCUCAACCAGAAAGUCUGUAAUCAUUUUAAGGGUA [U26C U103C], 0.69.
With GUUAACGGUCAUAGGCCAUGGAAACCAGGAGCACCAUUUCGCUGCCAGUGAAGAAAUGAACAAAGAAAAUCUGGGCCAGGCAGGCAUCAAAAGAAAUAGUCUAGCGCUCAACCAGAAAGUCUGUAAUCAUUUUAAGGGUA [U26C U103A] the figure was 0.24.
Turning to GUUAACGGUCAUAGGCCAUGGAAACCAGGAGCACCAUUUCGCUGCUAGUGAAGAAAUGAACAAAGAAAAUCUGGGCCAGGCAGGCAUCAAAAGAAAUAGUCUUGCGCUCAACCAGAAAGUCUGUAAUCAUUUUAAGGGUA [U26C C46U], the self-cleavage came to 0.81.
The result for GUUAACGGUCAUAGGCCAUGGAAACCAGGAGCACCAUUUCGCUGCCAGUGAAGAAAUGAACAAAGAAAAUCUGGGCCAGGCAGGCAUCAAAAGAAAUAGUCCUGCGCUCAACCAGAAAGUCUGUAAUCAUUUUAAGGGUA [U26C U102C] reads 1.65; that for GUUAACGGUCAUAGGCCAUGGAAACCAGGAGCACCAUUUCGCUGCCAGUGAAGAAAUGAACAAAGAAAAUCUGGGCCAGGCAGGCAUCAAAAGAAAUAGUCUUGCGCUCAACCAGAAAGUCUGUAAUCACUUUAAGGGUA [U26C U130C], 0.3.

These data come from the RNAGym collection of RNA variant scans (doi:10.7554/elife.90254).
